# Patent publication US20240209078A1 (Amgen, published 2024)
# Read-outs that look alike come from different tables or passages of the source.
# Tests used:
# [1] = biological target: T1, human CDH3 (Cadherin-3, P-Cadherin) (human, UniProt P22223 108-829); assay: cell-based or functional assay
# [2] = biological target: T1, human CDH3 (Cadherin-3, P-Cadherin); assay: cell-based or functional assay; remark: listed apart in the source
# [3] = biological target: T2, mouse MSLN protein (mouse, UniProt Q61468 298-600); assay: flow cytometry on transfected CHO cells
# T2 construct: whole, on cells; also called full-length mouse MSLN
# T2 sequence (looked up): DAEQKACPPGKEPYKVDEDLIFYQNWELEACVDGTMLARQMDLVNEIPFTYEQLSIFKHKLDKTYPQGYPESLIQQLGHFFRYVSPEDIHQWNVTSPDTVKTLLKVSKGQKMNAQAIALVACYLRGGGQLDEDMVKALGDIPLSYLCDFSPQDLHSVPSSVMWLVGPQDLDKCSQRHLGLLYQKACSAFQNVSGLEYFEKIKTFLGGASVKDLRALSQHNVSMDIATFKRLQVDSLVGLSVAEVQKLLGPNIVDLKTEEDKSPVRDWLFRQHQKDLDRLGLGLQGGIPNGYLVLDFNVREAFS
# [4] = biological target: T1, human CDH3 (Cadherin-3, P-Cadherin); assay: cell-based or functional assay; remark: listed apart in the source
# [5] = biological target: T1, human CDH3 (Cadherin-3, P-Cadherin); assay: cell-based or functional assay; remark: listed apart in the source
# [6] = biological target: T1, human CDH3 (Cadherin-3, P-Cadherin); assay: cell-based or functional assay; remark: listed apart in the source
# [7] = biological target: T1, human CDH3 (Cadherin-3, P-Cadherin); assay: cell-based or functional assay; remark: listed apart in the source
# [8] = biological target: T1, human CDH3 (Cadherin-3, P-Cadherin); assay: cell-based or functional assay; remark: listed apart in the source
binding result [3],Binder,"cytotoxicity EC50, HCT 116 KO MSLN cells [1] [nM]","cytotoxicity EC50, GSU KO MSLN cells [2] [nM]","cytotoxicity EC50, GSU KO MSLN cells [4] [nM]","cytotoxicity EC50, GSU KO MSLN cells [5] [nM]","cytotoxicity EC50, E:T ratio 1:1, GSU KO MSLN cells [6] [nM]","cytotoxicity EC50, E:T ratio 1:2, GSU KO MSLN cells [6] [nM]","cytotoxicity EC50, E:T ratio 10:1, GSU KO MSLN cells [6] [nM]","cytotoxicity EC50, HCT 116 KO MSLN cells [7] [nM]","cytotoxicity EC50, HCT 116 KO MSLN cells [8] [nM]"
no binding (tested: 5 µg/mL),"CH3 15-E11 VAG CC×I2L×G4×scFc×MS 15-B12 CC×I2L clipopt ID (SEQ ID NO 434) (bispecific antibody, single-chain multitargeting CDH3 x CD3 - scFc - MSLN x CD3 engager; also called K3T) QVQLVQSGAEVKKPGASVKVSCKASGYTFTNYWMNWVRQAPGQCLEWMGNIAYGVAGTNYNQKFQGRVTMTVDTSSSTAYMELSRLRSDDTAVYYCATRYFYVMDYWGQGTLVTVSSGGGGQGGGGQGGGGQDIQMTQSPSSLSASVGDRVTITCRASQDISNYLNWYQQKPGKVPKLLIYYTSRLHSGVPSRFSGSGSGTDFTLTISSLQPEDVATYYCVQYAQFPLTFGCGTKVEIKSGGGGQEVQLVESGGGLVQPGGSLKLSCAASGFTFNKYAMNWVRQAPGKGMEWVARIRSKYNNYATYYADAVKDRFTISRDDSKNTLYLQMNNLKTEDTAVYYCVRAGNFGSSYISYFAYWGQGTLVTVSSGGGGQGGGGQGGGGQQTVVTQEPSLTVSPGGTVTITCGSSTGAVTSGNYPNWIQKKPGQAPRGLIGGTKFLAPGTPARFSGSLEGGKAALTLSGVQPEDEAEYYCVLYYSNRWVFGSGTKLTVLGGGGCPPCPAPELLGGPSVFLFPPKPKDTLMISRTPEVTCVVVDVSHEEPEVKFNWYVDGVEVHNAKTKPCEEQYGSTYRCVSVLTVLHQDWLNGKEYKCKVSNKALPAPIEKTISKAKGQPREPQVYTLPPSREEMTKNQVSLTCLVKGFYPSDIAVEWESNGQPENNYKTTPPVLDSDGSFFLYSKLTVDKSRWQQGNVFSCSVMHEALHNHYTQKSLSLSPGKGGGGQGGGGQGGGGQGGGGQGGGGQGGGGQCPPCPAPELLGGPSVFLFPPKPKDTLMISRTPEVTCVVVDVSHEEPEVKFNWYVDGVEVHNAKTKPCEEQYGSTYRCVSVLTVLHQDWLNGKEYKCKVSNKALPAPIEKTISKAKGQPREPQVYTLPPSREEMTKNQVSLTCLVKGFYPSDIAVEWESNGQPENNYKTTPPVLDSDGSFFLYSKLTVDKSRWQQGNVFSCSVMHEALHNHYTQKSLSLSPGKGGGGQVQLQESGPGLVKPSETLSLTCTVSGGSISSSSYFWGWIRQPPGKCLEWIGNIYYSGSSNYNPSLKSRVTISVDTSKNQFSLKLSSVTAADTAVYYCARLPRGDRDAFDIWGQGTMVTVSSGGGGQGGGGQGGGGQDIVMTQSPSSLSASVGDRVTITCRASQGISNYLAWYQQKPGKVPKLLIYAASTLQSGVPSRFSGSGSGTDFTLTISSLQPEDFATYYCQQSYSTPFTFGCGTKVEIKSGGGGQEVQLVESGGGLVQPGGSLKLSCAASGFTFNKYAMNWVRQAPGKGMEWVARIRSKYNNYATYYADAVKDRFTISRDDSKNTLYLQMNNLKTEDTAVYYCVRAGNFGSSYISYFAYWGQGTLVTVSSGGGGQGGGGQGGGGQQTVVTQEPSLTVSPGGTVTITCGSSTGAVTSGNYPNWIQKKPGQAPRGLIGGTKFLAPGTPARFSGSLEGGKAALTLSGVQPEDEAEYYCVLYYSNRWVFGSGTKLTVL",0.0015,0.245,–,–,–,–,–,–,–
no binding (tested: 5 µg/mL),"CH3 15-E11 CC×I2L×G4×scFc×G4×MS 15-B12 CC×I2L_GQ (SEQ ID NO 251) (bispecific antibody, single-chain multitargeting engager; also called F5Q) QVQLVQSGAEVKKPGASVKVSCKASGYTFTNYWMNWVRQAPGQCLEWMGNIAYGVKGTNYNQKFQGRVTMTVDTSSSTAYMELSRLRSDDTAVYYCATRYFYVMDYWGQGTLVTVSSGGGGQGGGGQGGGGQDIQMTQSPSSLSASVGDRVTITCRASQDISNYLNWYQQKPGKVPKLLIYYTSRLHSGVPSRFSGSGSGTDFTLTISSLQPEDVATYYCVQYAQFPLTFGCGTKVEIKSGGGGQEVQLVESGGGLVQPGGSLKLSCAASGFTFNKYAMNWVRQAPGKGMEWVARIRSKYNNYATYYADAVKDRFTISRDDSKNTLYLQMNNLKTEDTAVYYCVRAGNFGSSYISYFAYWGQGTLVTVSSGGGGQGGGGQGGGGQQTVVTQEPSLTVSPGGTVTITCGSSTGAVTSGNYPNWIQKKPGQAPRGLIGGTKFLAPGTPARFSGSLEGGKAALTLSGVQPEDEAEYYCVLYYSNRWVFGSGTKLTVLGGGGCPPCPAPELLGGPSVFLFPPKPKDTLMISRTPEVTCVVVDVSHEEPEVKFNWYVDGVEVHNAKTKPCEEQYGSTYRCVSVLTVLHQDWLNGKEYKCKVSNKALPAPIEKTISKAKGQPREPQVYTLPPSREEMTKNQVSLTCLVKGFYPSDIAVEWESNGQPENNYKTTPPVLDSDGSFFLYSKLTVDKSRWQQGNVFSCSVMHEALHNHYTQKSLSLSPGKGGGGQGGGGQGGGGQGGGGQGGGGQGGGGQCPPCPAPELLGGPSVFLFPPKPKDTLMISRTPEVTCVVVDVSHEEPEVKFNWYVDGVEVHNAKTKPCEEQYGSTYRCVSVLTVLHQDWLNGKEYKCKVSNKALPAPIEKTISKAKGQPREPQVYTLPPSREEMTKNQVSLTCLVKGFYPSDIAVEWESNGQPENNYKTTPPVLDSDGSFFLYSKLTVDKSRWQQGNVFSCSVMHEALHNHYTQKSLSLSPGKGGGGQVQLQESGPGLVKPSETLSLTCTVSGGSISSSSYFWGWIRQPPGKCLEWIGNIYYSGSSNYNPSLKSRVTISVDTSKNQFSLKLSSVTAADTAVYYCARLPRGDRDAFDIWGQGTMVTVSSGGGGQGGGGQGGGGQDIVMTQSPSSLSASVGDRVTITCRASQGISNYLAWYQQKPGKVPKLLIYAASTLQSGVPSRFSGSGSGTDFTLTISSLQPEDFATYYCQQSYSTPFTFGCGTKVEIKSGGGGQEVQLVESGGGLVQPGGSLKLSCAASGFTFNKYAMNWVRQAPGKGMEWVARIRSKYNNYATYYADAVKDRFTISRDDSKNTLYLQMNNLKTEDTAVYYCVRAGNFGSSYISYFAYWGQGTLVTVSSGGGGQGGGGQGGGGQQTVVTQEPSLTVSPGGTVTITCGSSTGAVTSGNYPNWIQKKPGQAPRGLIGGTKFLAPGTPARFSGSLEGGKAALTLSGVQPEDEAEYYCVLYYSNRWVFGSGTKLTVL",–,–,3.24,3.24,0.322,0.341,0.098,0.0087,0.0087
